The text below walks through data of article PMC6448830 (PLoS Pathogens, 2019).

For experiment [1], the target named is T1, A. trivirgatus 2B4-Fc fusion protein (Aotus trivirgatus).
T1 construct: also called host 2B4-Fc; aoCD244-Fc
The experiment is described as follows: SPR. The conditions noted are these: both partners purified.

Experiment [2] concerns the target T2, human 2B4-Fc fusion protein (human, UniProt Q9BZW8 22-229).
T2 construct: also called h2B4-Fc; h2B4
T2 sequence: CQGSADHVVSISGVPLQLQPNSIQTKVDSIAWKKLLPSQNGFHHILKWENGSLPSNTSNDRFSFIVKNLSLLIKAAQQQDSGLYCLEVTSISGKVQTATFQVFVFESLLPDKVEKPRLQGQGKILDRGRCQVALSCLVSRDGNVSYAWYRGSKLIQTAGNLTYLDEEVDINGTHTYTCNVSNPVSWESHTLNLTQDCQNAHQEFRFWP
The experiment is described as follows: SPR. The conditions noted are these: both partners purified.

The term Kd denotes the equilibrium constant for the complex coming apart. Low values mean tighter binding, high ones weaker binding. By koff is commonly meant the rate constant with which the complex falls apart. A higher koff goes with fast dissociation. As a reminder, the kon is a measure of how fast the partners come together.

B1: A. trivirgatus CD48-Fc fusion protein (Fc fusion)
chain: TSIQGNSVDVINAISGGNVTLNISESLPENVREITWFCTYHQKIADWDVKRLKYFDNKFKGRVRLDYQSGALYISKIQKEDANIYIMRVLKETMYEQEWKIRLQVFDPVPKPDIKIEKTAKVEDDCYLKLSCVIPDESVNYTWYGDKEPFPKEFQSGVLETTLKSQDYSRCYTCQVSNPVSSKNDTVCFS
modifications: biotin (biotinylated host CD48-Fc in the blocking ELISA)
The molecule B1 had a Kd in experiment [1] of 3.3 nM.

B2: A43-Fc fusion protein (Fc fusion)
chain: VNIVNALVGGNITLNISESLPENVREITWFCTYDQKIADWDVKRLKYFDNKFKGRVRLDSQSGALYLSRVQKEDANIYIMRVLKDTMFEQDWKIRLQVFDEVDTPNITLVNTTLISDTCYVNFSCSHHDSLCYTSNENCTWYHFSQNITKTPPWNHSASSNSCYTCEFKNPVHRKNITMCISGCGQT
modifications: Wild-type viral ectodomain. The human IgG1 Fc carrier (dimerising) and CD33 leader are left out. The C-terminal limit follows from the printed membrane-proximal region 214-225, so Ig2 ends at …
With B2, in experiment [1], the Kd was found to be 1.3 nM, the “fold slower dissociation than host CD48” value stood at 2.6 fold, the dissociation rate constant (koff) came out at 0.000188 s⁻¹ and the kon was determined as 116000 M⁻¹ s⁻¹. In addition, in experiment [2], binding was characterised by a dissociation constant (Kd) of 3.6 nM, the “fold higher affinity than hCD48” value came out at 6 fold, the “fold slower dissociation than hCD48” value was 55 fold and the koff worked out at 0.000405 s⁻¹. In experiment [2], this molecule yielded a kon of 169000 M⁻¹ s⁻¹.
